# In the supplement of paper PMC11316812:
# ± gives the standard deviation of the averaged measurements.
# Legend:
# hTERT-HMEC = assay: percentage of EdU-negative (G0-arrested) nuclei per well, 72 h; higher = more G0 arrest; conditions: reference: sequence is the full UniProt precursor, the tested protein was the secreted form or ectodomain
# MCF7 = assay: as above; conditions: reference: sequence is the full UniProt precursor, the tested protein was the secreted form or ectodomain
# [1] = protein concentration 0.0225 µM
# [2] = protein concentration 0.0208571 µM
# [3] = protein concentration 0.208571 µM
# [4] = protein concentration 0.0072075 µM
# [5] = protein concentration 0.072075 µM
# [6] = protein concentration 0.0357143 µM
# [7] = protein concentration 0.357143 µM
# 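Note: secreted proteins added to cultured cells, EdU pulse at the end, nuclei found by Hoechst imaging, EdU status from nuclear versus surrounding ring intensity ratio, PBS as neutral control.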
sequence,measurement,setting,value
MGKGDPKKPRGKMSSYAFFVQTCREEHKKKHPDASVNFSEFSKKCSERWKTMSAKEKGKFEDMAKADKARYEREMKTYIPPKGETKKKFKDPNAPKRPPSAFFLFCSEYRPKIKGEHPGLSIGDVAKKLGEMWNNTAADDKQPYEKKAAKLKEKYEKDIAAYRAKGKPDAAKKGVVKAEKSKKKKEEEEDEEDEEDEEEEEDEEDEDEEEDDDDE,percentage of EdU-negative,hTERT-HMEC; [1],5.16 ± 0.5%
same,percentage of EdU-negative,hTERT-HMEC; protein concentration 0.225 µM,5.64 ± 0.066%
same,percentage of EdU-negative,MCF7; [1],23.1 ± 4.2%
same,percentage of EdU-negative,MCF7; protein concentration 0.225 µM,24.5 ± 0.87%
MGKNKLLHPSLVLLLLVLLPTDASVSGKPQYMVLVPSLLHTETTEKGCVLLSYLNETVTVSASLESVRGNRSLFTDLEAENDVLHCVAFAVPKSSSNEEVMFLTVQVKGPTQEFKKRTTVMVKNEDSLVFVQTDKSIYKPGQTVKFRVVSMDENFHPLNELIPLVYIQDPKGNRIAQWQSFQLEGGLKQFSFPLSSEPFQGSYKVVVQKKSGGRTEHPFTVEEFVLPKFEVQVTVPKIITILEEEMNVSVCGLYTYGKPVPGHVTVSICRKYSDASDCHGEDSQAFCEKFSGQLNSHGCFYQQVKTKVFQLKRKEYEMKLHTEAQIQEEGTVVELTGRQSSEITRTITKLSFVKVDSHFRQGIPFFGQVRLVDGKGVPIPNKVIFIRGNEANYYSNATTDEHGLVQFSINTTNVMGTSLTVRVNYKDRSPCYGYQWVSEEHEEAHHTAYLVFSPSKSFVHLEPMSHELPCGHTQTVQAHYILNGGTLLGLKKLSFYYLIMAKGGIVRTGTHGLLVKQEDMKGHFSISIPVKSDIAPVARLLIYAVLPTGDVIGDSAKYDVENCLANKVDLSFSPSQSLPASHAHLRVTAAPQSVCALRAVDQSVLLMKPDAELSASSVYNLLPEKDLTGFPGPLNDQDNEDCINRHNVYINGITYTPVSSTNEKDMYSFLEDMGLKAFTNSKIRKPKMCPQLQQYEMHGPEGLRVGFYESDVMGRGHARLVHVEEPHTETVRKYFPETWIWDLVVVNSAGVAEVGVTVPDTITEWKAGAFCLSEDAGLGISSTASLRAFQPFFVELTMPYSVIRGEAFTLKATVLNYLPKCIRVSVQLEASPAFLAVPVEKEQAPHCICANGRQTVSWAVTPKSLGNVNFTVSAEALESQELCGTEVPSVPEHGRKDTVIKPLLVEPEGLEKETTFNSLLCPSGGEVSEELSLKLPPNVVEESARASVSVLGDILGSAMQNTQNLLQMPYGCGEQNMVLFAPNIYVLDYLNETQQLTPEIKSKAIGYLNTGYQRQLNYKHYDGSYSTFGERYGRNQGNTWLTAFVLKTFAQARAYIFIDEAHITQALIWLSQRQKDNGCFRSSGSLLNNAIKGGVEDEVTLSAYITIALLEIPLTVTHPVVRNALFCLESAWKTAQEGDHGSHVYTKALLAYAFALAGNQDKRKEVLKSLNEEAVKKDNSVHWERPQKPKAPVGHFYEPQAPSAEVEMTSYVLLAYLTAQPAPTSEDLTSATNIVKWITKQQNAQGGFSSTQDTVVALHALSKYGAATFTRTGKAAQVTIQSSGTFSSKFQVDNNNRLLLQQVSLPELPGEYSMKVTGEGCVYLQTSLKYNILPEKEEFPFALGVQTLPQTCDEPKAHTSFQISLSVSYTGSRSASNMAIVDVKMVSGFIPLKPTVKMLERSNHVSRTEVSSNHVLIYLDKVSNQTLSLFFTVLQDVPVRDLKPAIVKVYDYYETDEFAIAEYNAPCSKDLGNA,percentage of EdU-negative,hTERT-HMEC; [2],4.57 ± 0.3%
same,percentage of EdU-negative,hTERT-HMEC; [3],5.37 ± 0.84%
same,percentage of EdU-negative,MCF7; [2],23 ± 0.6%
same,percentage of EdU-negative,MCF7; [3],27.8 ± 2.3%
MGKPWLRALQLLLLLGASWARAGAPRCTYTFVLPPQKFTGAVCWSGPASTRATPEAANASELAALRMRVGRHEELLRELQRLAAADGAVAGEVRALRKESRGLSARLGQLRAQLQHEAGPGAGPGADLGAEPAAALALLGERVLNASAEAQRAAARFHQLDVKFRELAQLVTQQSSLIARLERLCPGGAGGQQQVLPPPPLVPVVPVRLVGSTSDTSRMLDPAPEPQRDQTQRQQEPMASPMPAGHPAVPTKPVGPWQDCAEARQAGHEQSGVYELRVGRHVVSVWCEQQLEGGGWTVIQRRQDGSVNFFTTWQHYKAGFGRPDGEYWLGLEPVYQLTSRGDHELLVLLEDWGGRGARAHYDGFSLEPESDHYRLRLGQYHGDAGDSLSWHNDKPFSTVDRDRDSYSGNCALYQRGGWWYHACAHSNLNGVWHHGGHYRSRYQDGVYWAEFRGGAYSLRKAAMLIRPLKL [Q8NI99],percentage of EdU-negative,hTERT-HMEC; [4],4.22 ± 0.45%
same,percentage of EdU-negative,hTERT-HMEC; [5],5.15 ± 0.94%
same,percentage of EdU-negative,MCF7; [4],23.9 ± 1.3%
same,percentage of EdU-negative,MCF7; [5],25.7 ± 0.84%
MGKSASKQFHNEVLKAHNEYRQKHGVPPLKLCKNLNREAQQYSEALASTRILKHSPESSRGQCGENLAWASYDQTGKEVADRWYSEIKNYNFQQPGFTSGTGHFTAMVWKNTKKMGVGKASASDGSSFVVARYFPAGNVVNEGFFEENVLPPKK [Q9H4G4],percentage of EdU-negative,hTERT-HMEC; [6],4.55 ± 0.31%
same,percentage of EdU-negative,hTERT-HMEC; [7],7.6 ± 0.95%
same,percentage of EdU-negative,MCF7; [6],25.6 ± 0.71%
same,percentage of EdU-negative,MCF7; [7],24.5 ± 0.79%
